Data from US20050193443A1.

Target: maize VIVIPAROUS-1 (VP1) B3-domain transcription factor (maize) (UniProt P26307)
Assay: cell-based or functional assay

Sequence of UniProt P26307 (P26307 whole entry): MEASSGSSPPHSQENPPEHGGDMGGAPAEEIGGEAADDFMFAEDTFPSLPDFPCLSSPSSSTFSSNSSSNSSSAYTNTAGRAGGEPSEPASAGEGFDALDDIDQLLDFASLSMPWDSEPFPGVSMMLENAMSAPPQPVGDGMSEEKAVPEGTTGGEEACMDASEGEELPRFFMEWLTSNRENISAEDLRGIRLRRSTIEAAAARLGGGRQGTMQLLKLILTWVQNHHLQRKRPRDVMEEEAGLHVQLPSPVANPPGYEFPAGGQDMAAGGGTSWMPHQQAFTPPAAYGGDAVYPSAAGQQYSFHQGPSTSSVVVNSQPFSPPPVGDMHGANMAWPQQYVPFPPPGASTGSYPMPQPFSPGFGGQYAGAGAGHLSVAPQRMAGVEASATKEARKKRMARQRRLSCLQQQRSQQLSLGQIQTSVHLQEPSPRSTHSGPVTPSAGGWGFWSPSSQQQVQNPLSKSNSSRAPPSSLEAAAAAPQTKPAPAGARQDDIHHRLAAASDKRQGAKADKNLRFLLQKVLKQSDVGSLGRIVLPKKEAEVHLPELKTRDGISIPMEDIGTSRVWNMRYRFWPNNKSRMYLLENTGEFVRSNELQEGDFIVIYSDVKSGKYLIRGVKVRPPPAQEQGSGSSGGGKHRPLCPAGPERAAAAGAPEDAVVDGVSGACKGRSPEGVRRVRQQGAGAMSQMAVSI

ABA-inducible Em-GUS reporter gene expression, transiently co-transformed rice protoplasts; synergy relative to that of ABI5 with VP1: 2 fold
Substance: ABF3 (ABA-Response Element-Binding Factor 3) (from UniProt Q9M7Q3 1-454)
